Data taken from patent US20190071513A1 (APTEVO RESEARCH AND DEVELOPMENT, published 2019).
Like-named read-outs stand apart in the source and are kept apart here.

Key:
[1] = molecular target: T1, human CD123 on the surface of CD123(+) cell lines (human, UniProt P26951 19-378); assay: cell-based or functional assay
[2] = molecular target: human CD123 on the surface of CD123(+) cell lines (human) (UniProt P26951); assay: cell-based or functional assay
[3] = molecular target: human CD123 on the surface of CD123(+) cell lines (human) (UniProt P26951); assay: flow cytometry competition on Molm-13 cells: preincubation with unlabeled 7G3, then PE-conjugated 7G3 at 13 nM as the competitor that is read
[4] = molecular target: human CD123 on the surface of CD123(+) cell lines (human) (UniProt P26951); assay: flow cytometry competition on Molm-13 cells; competitor PE-conjugated 7G3 at 13 nM
[5] = molecular target: T2, CD3ε on Jurkat cells and human T-cells (human, UniProt P07766 23-207); assay: flow cytometry on CD3ε(+) Jurkat cells, PE anti-human Fc secondary
T2 construct: whole, on cells; on cells CD3ε stands in the TCR/CD3 complex; also called CD3 epsilon; CD3ε(+) Jurkat cell line
Method: Flow cytometry was used to quantitate binding of constructed molecules to the CD3ε expressing Jurkat cell line. Binding studies on the CD3ε(+) Jurkat cell line were performed by standard flow cytometry-based staining procedures. […] Signal from bound molecules was detected using a LSR-II™ flow cytometer (BD Biosciences) and analyzed by FlowJo flow cytometry analysis software. Mean fluorescence intensity (MFI) of bound molecules on cells was determined after exclusion of doublets.

[6] = molecular target: T1, human CD123 on the surface of CD123(+) …; assay: flow cytometry on CD123(+) Molm-13 cells, PE anti-human IgG Fc secondary antibody, MFI; table under the graph
Method: (§1) The Molm-13 cell line was obtained from DSMZ (Braunschweig, Germany). The Molm-13 cell line was cultured according to the provided protocols. Chinese hamster ovary (CHO) cells stably expressing the full length cynomolgus CD123 protein were developed in-house. […] Signal from bound molecules was detected using a LSR-II™ flow cytometer (BD Biosciences) and analyzed by FlowJo flow cytometry analysis software. Mean fluorescence intensity (MFI) of bound molecules on cells was determined after exclusion of doublets. Nonlinear regression analysis to determine EC50 values was performed in GraphPad Prism 7® graphing and statistics software.

[7] = molecular target: T3, human CD123 ectodomain with Avi-3xFLAG-His affinity tag (TRI032) (human); assay: SPR (Biacore T200), bispecific captured by anti-Fc, monomeric CD123 ECD as analyte, 25 C, 1:1 model
T3 construct: also called CD123 ECD; recombinant monomeric CD123 ectodomain (ECD)
T3 chain: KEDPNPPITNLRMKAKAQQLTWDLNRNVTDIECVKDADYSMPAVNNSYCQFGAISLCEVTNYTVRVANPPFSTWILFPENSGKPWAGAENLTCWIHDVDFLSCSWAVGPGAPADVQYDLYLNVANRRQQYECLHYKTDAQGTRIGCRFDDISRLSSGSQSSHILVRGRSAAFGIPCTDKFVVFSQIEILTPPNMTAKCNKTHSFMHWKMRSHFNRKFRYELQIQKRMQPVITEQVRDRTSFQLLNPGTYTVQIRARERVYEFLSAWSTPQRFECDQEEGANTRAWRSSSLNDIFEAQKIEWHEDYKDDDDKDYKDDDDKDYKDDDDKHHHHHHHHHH
Method: SPR binding studies of bispecific molecules to recombinant monomeric CD123 ectodomain (ECD) were conducted at 25° C. in HBS-EP+ buffer. […] The bispecific molecules at 200 nM in HBS-EP+ buffer were captured by the immobilized anti-Fc F(ab′)2 fragment at a flow rate of 30 μL/min for 120 sec to reach a stable 2000 RU response. […] Optimal regeneration was achieved by one injection of 10 mM glycine (pH 1.7) at a flow rate of 30 μL/min for 15 sec followed by one injection of 50 mM NaOH at 30 μL/min for 15 sec. A two minute stabilization with HBS-EP+ buffer was completed before the subsequent run.
Sensorgrams obtained from kinetic SPR measurements were analyzed by the double subtraction method. The signal from the reference flow cell was subtracted from the analyte binding response obtained from flow cells with immobilized or captured ligands. Buffer reference responses were then averaged from multiple injections. […] All sensorgrams were fitted using a simple one-to-one binding model.

[8] = molecular target: T1, human CD123 on the surface of CD123(+) …; assay: flow cytometry on CD123(+) Molm-13 cells, PE anti-human IgG Fc secondary antibody, MFI; table under the graph; remark: listed apart in the source
Method: as §1

[9] = molecular target: T4, Full-length cynomolgus CD123, isoform 1 (TRI114), on transfected cells (cynomolgus monkey); assay: flow cytometry on CHO cells stably expressing cynomolgus CD123, PE anti-human IgG Fc secondary antibody, MFI; table under the graph
T4 construct: also called cyno CD123; CHO cells stably expressing cynomolgus CD123 protein
T4 chain: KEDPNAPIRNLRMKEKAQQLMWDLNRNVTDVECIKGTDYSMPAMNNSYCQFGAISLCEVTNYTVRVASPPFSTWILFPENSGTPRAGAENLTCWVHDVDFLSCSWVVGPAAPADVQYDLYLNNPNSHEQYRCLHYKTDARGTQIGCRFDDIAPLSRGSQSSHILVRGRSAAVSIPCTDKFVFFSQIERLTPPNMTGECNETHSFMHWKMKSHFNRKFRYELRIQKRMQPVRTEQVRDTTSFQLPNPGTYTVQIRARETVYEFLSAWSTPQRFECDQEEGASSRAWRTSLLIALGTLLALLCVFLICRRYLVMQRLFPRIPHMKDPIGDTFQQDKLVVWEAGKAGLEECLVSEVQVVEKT
Method: as §1

human CD123 on the surface of CD123(+) cell lines (human), sequence (P26951 19-378 limits assumed, form in doubt): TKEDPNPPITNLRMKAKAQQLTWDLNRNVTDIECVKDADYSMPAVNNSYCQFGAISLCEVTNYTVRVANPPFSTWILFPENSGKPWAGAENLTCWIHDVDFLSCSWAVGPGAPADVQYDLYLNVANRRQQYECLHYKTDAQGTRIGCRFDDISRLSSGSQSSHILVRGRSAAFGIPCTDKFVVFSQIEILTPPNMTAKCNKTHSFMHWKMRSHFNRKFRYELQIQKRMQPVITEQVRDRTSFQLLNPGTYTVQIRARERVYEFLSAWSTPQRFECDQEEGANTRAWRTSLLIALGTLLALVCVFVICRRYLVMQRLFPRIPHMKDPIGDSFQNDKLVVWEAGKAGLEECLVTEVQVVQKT
T1 sequence (P26951 19-378 limits assumed, form in doubt): as above
T2 sequence (P07766 23-207): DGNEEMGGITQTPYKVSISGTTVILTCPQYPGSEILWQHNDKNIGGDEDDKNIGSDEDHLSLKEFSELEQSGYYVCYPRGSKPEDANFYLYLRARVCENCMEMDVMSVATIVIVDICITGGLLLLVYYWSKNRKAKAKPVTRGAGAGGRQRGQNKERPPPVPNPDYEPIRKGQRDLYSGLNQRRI

B1: TRI168 (bispecific antibody)
chain 1: QAVVTQEPSLTVSPGGTVTLTCRSSTGAVTTSNYANWVQQKPGQAPRGLIGGTNKRAPWTPARFSGSLLGGKAALTITGAQAEDEADYYCALWYSNLWVFGGGTKLTVLGGGGSGGGGEVQLVQSGAELKKPGASVKVSCKASGYTFTDYYMKWVRQAPGQGLEWIGDIIPSNGATFYNQKFKGRVTITVDKSTSTAYMELSSLRSEDTAVYYCARSHLLRASWFAYWGQGTLVTVSSGGCGGGEVAALEKEVAALEKEVAALEKEVAALEK
chain 2: DFVMTQSPDSLAVSLGERVTMSCKSSQSLLNSGNQKNYLTWYQQKPGQPPKLLIYWASTRESGVPDRFSGSGSGTDFTLTISSLQAEDVAVYYCQNDYSYPYTFGQGTKLEIKGGGSGGGGEVQLVESGGGLVQPGGSLRLSCAASGFTFSTYAMNWVRQAPGKGLEWVGRIRSKYNNYATYYADSVKDRFTISRDDSKNSLYLQMNSLKTEDTAVYYCVRHGNFGNSYVSWFAYWGQGTLVTVSSGGCGGGKVAALKEKVAALKEKVAALKEKVAALKESSSLNDIFEAQKIEWHEDYKDDDDKDYKDDDDKDYKDDDDKHHHHHHHHHH
- EC50 of T-cell activation (CD4+ and CD8+ CD25+ CD69+) with Molm-13 cells, 24 hours [1]: < 0.01 nM
- EC50 of T-cell proliferation (CFSE) with Molm-13 cells, 4 days [1]: 0.002 to 0.005 nM

B2: anti-human CD123 monoclonal antibody 7G3 (antibody, from another filing, V domains shown)
VH: EVQLQQSGPELVKPGASVKMSCKASGYTFTDYYMKWVKQSHGKSLEWIGDIIPSNGATFYNQKFKGKATLTVDRSSSTAYMHLNSLTSEDSAVYYCTRSHLLRASWFAYWGQGTLVTVSA
VL: DFVMTQSPSSLTVTAGEKVTMSCKSSQSLLNSGNQKNYLTWYLQKPGQPPKLLIYWASTRESGVPDRFTGSGSGTDFTLTISSVQAEDLAVYYCQNDYSYPYTFGGGTKLEIKR
- IL-3 induced proliferation of TF-1 cells (CyQUANT), 4 days [2]: 100%
- IC50 (read off the curve) [3]: 2 nM
- percent inhibition of binding of PE-conjugated 7G3 [4]: 100%

B3: TSC266 (bispecific antibody)
chain: DIQMTQSPSAMSASVGDRVTITCRASKSISKYLAWFQQKPGKVPKLRIHSGSTLQSGVPSRFSGSGSGTEFTLTISSLQPEDFATYYCQQHIEYPWTFGQGTKVEIKRGGGGSGGGGSGGGGSQVQLVQSGAEVKKPGASVKVSCKASGYTFTDYYMHWVRQAPGQGLEWMGYFNPYNDYTRYAQKFQGRVTMTRDTSISTAYMELSSLRSDDTAVYYCARSDGYYDAMDYWGQGTTVTVSSSEPKSSDKTHTCPPCPAPEAAGAPSVFLFPPKPKDTLMISRTPEVTCVVVDVSHEDPEVKFNWYVDGVEVHNAKTKPREEQYNSTYRVVSVLTVLHQDWLNGKAYACAVSNKALPAPIEKTISKAKGQPREPQVYTLPPSRDELTKNQVSLTCLVKGFYPSDIAVEWESNGQPENNYKTTPPVLDSDGSFFLYSKLTVDKSRWQQGNVFSCSVMHEALHNHYTQKSLSLSPGQRHNNSSLNTGTQMAGHSPNSQVQLVESGGGVVQPGRSLRLSCKASGYTFTRSTMHWVRQAPGQGLEWIGYINPSSAYTNYNQKFKDRFTISADKSKSTAFLQMDSLRPEDTGVYFCARPQVHYDYNGFPYWGQGTPVTVSSGGGGSGGGGSGGGGSAQDIQMTQSPSSLSASVGDRVTMTCSASSSVSYMNWYQQKPGKAPKRWIYDSSKLASGVPARFSGSGSGTDYTLTISSLQPEDFATYYCQQWSRNPPTFGGGTKLQITSSS
notes: anti-PSMA scFv - Fc - anti-CD3 scFv (CRIS-7 derived) at the C-terminus; also called anti-PSMA×CRIS-7 scFv-Fc-scFv
- EC50 [5]: 2 nM
- fold reduction of binding against DRA240 [5]: ~10 fold

B4: TRI129 (bispecific antibody)
chain: EVQLLESGGGLVQPGGSLRLSCAASGFTFSSYGMSWVRQAPGKGLEGVSAISGSGGSTYYADSVKGRFTISRDNSKNTLYLQMNSLRAEDTAVYYCAKEKLRYFDWLSDAFDIWGQGTMVTVSSGGGGSGGGGSGGGGSGGGGSDIVMTQSPDSLAVSLGERATINCKSSHSVLYSSNNKNYLAWYQQKPGQPPKLLIYWASTRESGVPDRFSGSGSGTDFTLTISSLQAEDVAVYYCQQYYSTPPTTFGGGTKVEIKSSSEPKSSDKTHTCPPCPAPEAAGAPSVFLFPPKPKDTLMISRTPEVTCVVVDVSHEDPEVKFNWYVDGVEVHNAKTKPREEQYNSTYRVVSVLTVLHQDWLNGKEYKCAVSNKALPAPIEKTISKAKGQPREPQVYTLPPSRDELTKNQVSLTCLVKGFYPSDIAVEWESNGQPENNYKTTPPVLDSDGSFFLYSKLTVDKSRWQQGNVFSCSVMHEALHNHYTQKSLSLSPGSGGGGSGGGGSGGGGSPSQVQLVQSGPEVKKPGSSVKVSCKASGYTFSRSTMHWVRQAPGQGLEWIGYINPSSAYTNYNQKFKDRVTITADKSTSTAYMELSSLRSEDTAVYYCARPQVHYDYNGFPYWGQGTLVTVSSGGGGSGGGGSGGGGSGGGGSDIQMTQSPSTLSASVGDRVTMTCSASSSVSYMNWYQQKPGKAPKRWIYDSSKLASGVPSRFSGSGSGTDYTLTISSLQPDDFATYYCQQWSRNPPTFGGGTKVEIKRS
notes: scFv-Fc-scFv, anti-CD123 × anti-CD3ε; dimer; also called OMT1 VHVL × TSC456 scFv-Fc-scFv
- EC50 [6]: 5.33 nM
- Kd [7]: 11.4 nM
- koff [7]: 0.00205 s⁻¹
- kon [7]: 179000 M⁻¹ s⁻¹
- EC50 [8]: 9.69 nM
- EC50 [9]: 8.77 nM
